Holding throughout (format): cell-based, human
For one test, the system named is Smad2/3-Smad4 complexes. Description: Smad2/3-Smad4 PLA. Conditions: over-expression, 500 μg/mL TGFβ, 1 kPa hydrogels, p=0.0081. The method, then:
In vitro PLA: Protein-protein PLA was per-formed with antibody pairs listed in Table 4 as described in (42) with the following modifications: cells were plated on FN-coated glass or hydrogels (Matrigen, Brea, Calif.). All primary antibody in-cubations were performed for 16-24 hours at 4 C and cells were counter-stained with 1:40 phalloidin-488 or phalloidin-546 in 1×PBS for 30 minutes at room temperature and/or further processed for IF imaging using the procedure recommended in Sigma's PLA Resource Center. […] Imaging and analysis were performed as described for high-resolution ex vivo PLA signals except that no tissue autofluorescence signal was measured or needed to be subtracted and, when appro-priate, other IF signal (e.g. FLAG) were measured in parallel. […] Instead the PLA signal was quantified as the PLA volume divided by the nuclear intensity for each image. Each data point represents at least 3 unique surfaces with at least 12 cells measured per surface. For Smad2/3-Smad4 experiments, only two independent hydrogels were analyzed for the “CTF 500 μg/mL” and “Neon 500 μg/mL” groups due to loss of hydrogels during processing. Each bar in FIG. 5D represents the mean with standard error of the mean for all the cells analyzed from that condition.

The next test has as its system Smad3 phosphorylation. Description: phospho-Smad3 to total Smad3 ratio by western blot. Conditions: electroporation of TGFβ dosed HFFs on tissue culture plastic.
For the next test, the system named is Smad2/3. Nature of the test: V5-Smad2/3 PLA with recombinant LEMD3 / CTF. The method, then: In vitro PLA: Protein-protein PLA was per-formed with antibody pairs listed in Table 4 as described in (42) with the following modifications: cells were plated on FN-coated glass or hydrogels (Matrigen, Brea, Calif.). All primary antibody in-cubations were performed for 16-24 hours at 4 C and cells were counter-stained with 1:40 phalloidin-488 or phalloidin-546 in 1×PBS for 30 minutes at room temperature and/or further processed for IF imaging using the procedure recommended in Sigma's PLA Resource Center. For all recombinant LEMD3 and C-terminal fragment experiments, HFFs were electroporated as above and allowed to culture for 24 hours on 10 μg/mL fibronectin coated glass or hydrogels before fixation. For LEMD3-phospho-Smad2/3, LEMD3-Smad2/3+TGFβ and for Smad2/3-Smad4 PLA assays: cells were treated 90 minutes before fixation with 50 μg/mL for LEMD3- and CTF-Smad2/3 assays, 100 μg/mL TGFβ for LEMD3-phospho-Smad2/3 experiments and 500 μg/mL TGFβ for Smad2/3-Smad4 experiments. For FLAG post-staining of PLA processed tissues, cells were blocked with unlabelled AffiniPure donkey anti-rabbit antibodies (Jackson ImmunoResearch, West Grove, Pa.) at a 1:10 dilution in 1×PBS-T at room temperature for 1 hour before further IF processing with 1:1000 rabbit anti-FLAG (#F7425, Sigma-Aldrich, Darmstadt, Germany) for 1 hour in PBS-T at room temperature. Following three washes with PBS-T for 5 minutes, each sample was stained with 1:500 goat anti-rabbit 546 in PBS-T for 1 hour at room temperature, washed again and then counter-stained as above. For V5 post-staining of PLA processed samples, cells were incubated with 1:200 647 labelled anti-V5 antibody (R&D Systems, Minneapolis, Minn.) diluted in PBS-T at room tem-perature for 1 hour before washing three times in PBS-T for 5 minutes each and then counter-stained as above. Imaging and analysis were performed as described for high-resolution ex vivo PLA signals except that no tissue autofluorescence signal was measured or needed to be subtracted and, when appro-priate, other IF signal (e.g. FLAG) were measured in parallel. For cells on Matrigen HTS plates (FIGS. 2c & 2d), the confluence of cells prevented identifying individual cell boundaries. Instead the PLA signal was quantified as the PLA volume divided by the nuclear intensity for each image. Each data point represents at least 3 unique surfaces with at least 12 cells measured per surface. For Smad2/3-Smad4 experiments, only two independent hydrogels were analyzed for the “CTF 500 μg/mL” and “Neon 500 μg/mL” groups due to loss of hydrogels during processing. Each bar in FIG. 5D represents the mean with standard error of the mean for all the cells analyzed from that condition.

Another test has as its system PPM1α. Nature of the test: PPM1α PLA. Conditions: glass. As to the method: In vitro PLA: Protein-protein PLA was per-formed with antibody pairs listed in Table 4 as described in (42) with the following modifications: cells were plated on FN-coated glass or hydrogels (Matrigen, Brea, Calif.). All primary antibody in-cubations were performed for 16-24 hours at 4 C and cells were counter-stained with 1:40 phalloidin-488 or phalloidin-546 in 1×PBS for 30 minutes at room temperature and/or further processed for IF imaging using the procedure recommended in Sigma's PLA Resource Center. For all recombinant LEMD3 and C-terminal fragment experiments, HFFs were electroporated as above and allowed to culture for 24 hours on 10 μg/mL fibronectin coated glass or hydrogels before fixation. For LEMD3-phospho-Smad2/3, LEMD3-Smad2/3+TGFβ and for Smad2/3-Smad4 PLA assays: cells were treated 90 minutes before fixation with 50 μg/mL for LEMD3- and CTF-Smad2/3 assays, 100 μg/mL TGFβ for LEMD3-phospho-Smad2/3 experiments and 500 μg/mL TGFβ for Smad2/3-Smad4 experiments. […] Imaging and analysis were performed as described for high-resolution ex vivo PLA signals except that no tissue autofluorescence signal was measured or needed to be subtracted and, when appro-priate, other IF signal (e.g. FLAG) were measured in parallel. […] Instead the PLA signal was quantified as the PLA volume divided by the nuclear intensity for each image. Each data point represents at least 3 unique surfaces with at least 12 cells measured per surface. For Smad2/3-Smad4 experiments, only two independent hydrogels were analyzed for the “CTF 500 μg/mL” and “Neon 500 μg/mL” groups due to loss of hydrogels during processing. Each bar in FIG. 5D represents the mean with standard error of the mean for all the cells analyzed from that condition.

B1: CTF: consensus C-terminal fragment of LEMD3 (SEQ ID NO: 25), expressed from pFLAG-LEMD3p.Δ21-669-V5 (protein, listed as Homo sapiens)
chain: MAAAAASAPQQLSDEELFSQRDSLIQPHDRKKMKKVWDRAVDFLAANESRVRTETRRIGGADFLVWRWIQPSASCDKILVIPSKVWQGQAFHLDRRNSPPNSLTPCLKIRNMFDPVMEIGDQWHLAIQEAILEKCSDNDGIVHIAVDKNSREGCVYVKCLSPEYAGKAFKALHGSWFDGKLVTVKYLRLDRYHHRFPQALTSNTPLKPSNKHMNSMSHLRLRTGLTNSQGSS
modifications: FLAG and V5 tags
For B1, the “TGFβ-driven increase in Smad2/3-Smad4 complexes” value with Smad2/3-Smad4 complexes was “significantly abrogated”. Further, the pSmad3/Smad3 ratio entry with Smad3 phosphorylation is recorded as “decreased the pSmad3/Smad3 ratio”. In the test with Smad2/3 (1 kPa p<0.0001, 25 kPa p=0.0227), the “overall CTF-Smad2/3 interactions versus electroporation control fibroblasts” value is “significantly more overall CTF-Smad2/3 interactions”. Further, the “CTF-Smad2/3 interactions, cytoplasm” value in the test with Smad2/3 (1 kPa relative to 25 kPa hydrogels, p<0.0001) is on record as “significantly more Smad2/3 interactions”. In the test with Smad2/3 (1 kPa relative to 25 kPa hydrogels, p<0.0001, FIG. 5B), the CTF-Smad2/3 interactions overall result was “significantly more Smad2/3 interactions”. Also, the “CTF-Smad2/3 interactions, nucleus” value in the test with Smad2/3 (1 kPa relative to 25 kPa hydrogels, p=0.0082) is on record as “significantly more Smad2/3 interactions”. The “fraction of CTF-Smad2/3 interactions in the nucleus” value in the test on Smad2/3 (depending on stiffness, FIG. 5B) was 40-55%. Moreover, the “PPM1α interactions, total” value in the test with PPM1α (vs Neon Only control, p<0.0001) was “bound PPM1α”. The “PPM1α interactions, cytoplasm” value with PPM1α (vs control, p=0.0081) is given as “bound PPM1α significantly above background”. The “PPM1α interactions, nucleus” value in the test with PPM1α (vs control, p=0.2569) was “only endogenous LEMD3 was found to significantly bind PPM1α in the nucleus”.

Values taken from patent publication US11541101B1, “LEMD3 antagonizes TGF-beta-driven Smad2/3 transcription in a stiffness-dependent fashion in both the nucleus and cytosol” (University of Virginia Patent Foundation, priority 2018, dated 2023).
